Data on three molecules can be found in US20190203248A1 (Bristol-Myers Squibb, published 2019).

Assay [1] has as its target T1, murine serum albumin (mouse, UniProt P07724 25-608).
T1 construct: also called MuSA; mouse serum albumin
Put plainly: SPR (Biacore), albumin immobilized on CM5 chip. (Surface plasmon resonance follows binding to a sensor surface in real time, without labels.)
Experimental: In addition, binding to albumin was carried out under various pH conditions ranging from pH 5.5 to pH 7.4.

In assay [2] the target is T2, rhesus serum albumin (rhesus, UniProt Q28522 17-600).
T2 construct: also called RhSA
Put plainly: comment in summary table.

The target of assay [3] is T3, human serum albumin (human, UniProt P02768 25-609).
T3 construct: also called HSA; HuSA
Put plainly: binding kinetics, HBS-P buffer, 25 C; 25 C, HBS-P buffer.

In assay [4] the target is T3, human serum albumin. The assay is described as follows: binding kinetics, HBS-P buffer, 37 C against 25 C.
Assay [5] has as its target T2, rhesus serum albumin. Put plainly: binding kinetics, HBS-P buffer, 37 C against 25 C.
The target of assay [6] is T3, human serum albumin. Put plainly: binding kinetics, MES buffer, pH 5.5.
Assay [7] deals with T2, rhesus serum albumin. The assay is described as follows: binding kinetics, MES buffer, pH 5.5.
Assay [8] has as its target T3, human serum albumin. Put plainly: binding kinetics, HBS-P buffer, 25 C.
In assay [9] the target is T2, rhesus serum albumin. Put plainly: binding kinetics, HBS-P buffer, 25 C.
The target of assay [10] is T3, human serum albumin. The assay is described as follows: direct binding ELISA on plate-coated albumin, absorbance 450 nm. The protocol:
(§1) For dose response assays, concentrations ranging from 0.1 nM up to 1 μM were used. After washing in PBST to remove unbound Adnectins™, anti-His mAb-HRP conjugate (R&D Systems, MN) diluted 1:2500 in casein block buffer was added to the bound His-tagged Adnectins™ for 1 hour at room temperature. Excess conjugate was removed by washing with PBST and bound Adnectins™ detected using TMB detection reagents (BD Biosciences) according to the manufacturer's instructions.

In assay [11] the target is rat serum albumin (rat, UniProt P02770 25-608). Described as above. As to the method:
as §1

Assay [12] has as its target T1, murine serum albumin. Described as above. As to the method:
as §1

Assay [13] deals with T3, human serum albumin. Put plainly: binding kinetics, HBS-P buffer, 37 C.
Assay [14] deals with T2, rhesus serum albumin. Put plainly: binding kinetics, HBS-P buffer, 37 C.
The target in assay [15] is T3, human serum albumin. Put plainly: binding kinetics, MES buffer, pH 7.4.
Assay [16] concerns the target T2, rhesus serum albumin. Put plainly: binding kinetics, MES buffer, pH 7.4.
Assay [17] deals with T4, β-klotho of differentiated 3T3-L1 adipocytes (mouse, UniProt Q99N32 1-1043).
T4 sequence (looked up): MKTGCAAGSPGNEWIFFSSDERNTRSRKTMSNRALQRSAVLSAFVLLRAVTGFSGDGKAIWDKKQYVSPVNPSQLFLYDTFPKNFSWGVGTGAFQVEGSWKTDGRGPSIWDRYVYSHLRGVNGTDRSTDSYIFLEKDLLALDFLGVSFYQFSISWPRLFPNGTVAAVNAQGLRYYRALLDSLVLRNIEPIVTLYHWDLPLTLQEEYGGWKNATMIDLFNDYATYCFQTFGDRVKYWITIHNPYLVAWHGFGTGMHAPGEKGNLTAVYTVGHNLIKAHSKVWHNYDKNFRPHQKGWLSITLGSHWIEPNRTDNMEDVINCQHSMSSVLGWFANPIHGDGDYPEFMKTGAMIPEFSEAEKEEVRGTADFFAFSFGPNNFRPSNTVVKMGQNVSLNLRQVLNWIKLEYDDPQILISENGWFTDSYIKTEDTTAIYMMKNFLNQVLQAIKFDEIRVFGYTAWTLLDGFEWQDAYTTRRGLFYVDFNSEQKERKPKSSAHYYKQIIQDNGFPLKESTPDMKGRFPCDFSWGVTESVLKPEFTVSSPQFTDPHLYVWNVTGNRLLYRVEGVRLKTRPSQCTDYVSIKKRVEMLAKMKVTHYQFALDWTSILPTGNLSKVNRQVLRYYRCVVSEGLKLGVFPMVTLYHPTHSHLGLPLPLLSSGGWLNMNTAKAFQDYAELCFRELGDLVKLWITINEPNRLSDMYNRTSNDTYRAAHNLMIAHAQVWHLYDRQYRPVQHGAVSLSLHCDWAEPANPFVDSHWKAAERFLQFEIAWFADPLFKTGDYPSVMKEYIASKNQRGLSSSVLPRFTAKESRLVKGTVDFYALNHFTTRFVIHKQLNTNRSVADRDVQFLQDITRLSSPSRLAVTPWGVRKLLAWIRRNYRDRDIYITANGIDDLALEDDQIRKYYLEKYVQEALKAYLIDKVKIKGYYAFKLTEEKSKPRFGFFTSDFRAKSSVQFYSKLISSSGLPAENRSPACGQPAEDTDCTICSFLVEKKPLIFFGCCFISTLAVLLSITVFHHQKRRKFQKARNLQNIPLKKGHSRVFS
Put plainly: cell-based or functional assay.

For assay [18], the target named is T3, human serum albumin. Put plainly: SPR (Biacore T100), HSA immobilized, 25 C, 30 µl/min. The protocol: (§2) Serum albumins were dissolved in PBS buffer (10 mM sodium phosphate, 130 mM sodium chloride, pH 7.1) to a concentration of 10 mg/ml, and subsequently diluted to 8-10 μg/ml in 10 mM sodium acetate pH 5.0 for immobilization. Serum albumins were immobilized on a Series S CM5 sensor chip using standard ethyl(dimethylaminopropyl) carbodiimide (EDC)/N-hydroxysuccinimide (NHS) chemistry in HBS-EP+ running buffer at 25° C., following general manufacturer guidelines. Flow cell 1 was activated with EDC/NHS and blocked with ethanolamine. […] Kinetic experiments were performed in PBS buffer containing 0.05% tween-20 (running buffer) at either 25° C. or 37° C. […] These samples were injected across flow cells 1-4 for 300 s, with a 420 s dissociation time, at flow rates of 30 μl/min or 60 μl/min to check for mass transfer limitation. All surfaces were regenerated with 2 pulses of 10 mM glycine pH 2.0 at 30 μl/min for 30 s. Raw sensograms were “double-referenced” by subtracting flow cell 1 data from flow cell 2, 3 or 4 data, and then subtracting a separate buffer cycle from each sensogram. The double-referenced sensogram data was fitted to a 1:1 Langmuir model using Biacore T100 Evaluation software version 2.0.2 to determine the association rate constant (ka), the dissociation rate constant (kd), and the equilibrium dissociation constant (KD).

Assay [19] deals with T3, human serum albumin. The assay is described as follows: isothermal titration calorimetry, 37 C, PBS. The protocol: SABA-FGF21 fusion protein plus buffer was placed in the instrument sample cell at a concentration range of 0.4 to 1.0 mg/mL protein. The matching buffer was placed in the reference cell. Concentrations were determined using extinction coefficients calculated from the protein sequences of the pure proteins. The instrument reaction cell was equilibrated at 37° C. […] The resultant thermogram data was fitted using Origin™ evaluation software package (Microcal Inc.) version 2.0.2 to estimate the stochiometry, enthalpy, and equilibrium disassociation constant (KD) of the protein—protein binding reaction.
(In general: ITC needs no label: the signal is the heat of the interaction.)

Assay [20] addresses T3, human serum albumin. The assay is described as follows: SPR (Biacore T100), HSA immobilized, 37 C, 30 µl/min. As to the method:
as §2

In assay [21] the target is T5, cynomolgous monkey serum albumin (cynomolgous monkey, UniProt A2V9Z4 25-608).
T5 construct: also called CySA
The assay is described as follows: SPR (Biacore T100), CySA immobilized, 25 C, 30 µl/min. The protocol: as §2

The target in assay [22] is T6, human β-klotho (human, UniProt Q86Z14 1-1044). Put plainly: cell-based or functional assay.
The target of assay [23] is T1, murine serum albumin. Put plainly: SPR (Biacore T100), immobilized MuSA, analyte series 1000 to 62.5 nM, 37 C. As to the method: as §2
Assay [24] has as its target T6, human β-klotho. The assay is described as follows: cell-based or functional assay. The source holds these as a separate data set.
The target of assay [25] is T5, cynomolgous monkey serum albumin. The assay is described as follows: SPR (Biacore T100), CySA immobilized, 37 C, 30 µl/min. The protocol:
as §2

By kon is commonly meant a measure of how fast the partners come together. One may read the Kd as the free concentration of one partner at which half of the binding sites on the other are occupied at equilibrium, for simple one-to-one binding. By koff is commonly meant a measure of how fast the partners let go of each other. For orientation: EC50 (read off the curve) means the concentration needed to bring the measured effect to its halfway point.

T2 sequence (Q28522 17-600 limits assumed): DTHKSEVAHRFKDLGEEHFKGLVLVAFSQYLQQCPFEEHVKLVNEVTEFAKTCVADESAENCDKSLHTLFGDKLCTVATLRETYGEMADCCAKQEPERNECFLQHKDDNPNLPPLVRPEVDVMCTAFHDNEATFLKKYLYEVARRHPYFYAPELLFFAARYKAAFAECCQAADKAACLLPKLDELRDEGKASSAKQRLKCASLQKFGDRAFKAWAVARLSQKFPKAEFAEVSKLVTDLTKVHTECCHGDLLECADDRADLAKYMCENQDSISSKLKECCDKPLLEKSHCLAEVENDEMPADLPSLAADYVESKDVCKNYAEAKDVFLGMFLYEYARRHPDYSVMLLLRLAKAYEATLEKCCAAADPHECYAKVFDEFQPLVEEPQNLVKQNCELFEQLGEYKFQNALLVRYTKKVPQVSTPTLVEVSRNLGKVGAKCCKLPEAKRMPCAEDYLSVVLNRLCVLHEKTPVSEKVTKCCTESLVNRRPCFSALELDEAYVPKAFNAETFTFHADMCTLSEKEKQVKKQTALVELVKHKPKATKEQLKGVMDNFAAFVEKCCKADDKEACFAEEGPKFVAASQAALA
T5 sequence (A2V9Z4 25-608 limits assumed): as the sequence (Q28522 17-600 limits assumed) above
T1 sequence (P07724 25-608 limits assumed): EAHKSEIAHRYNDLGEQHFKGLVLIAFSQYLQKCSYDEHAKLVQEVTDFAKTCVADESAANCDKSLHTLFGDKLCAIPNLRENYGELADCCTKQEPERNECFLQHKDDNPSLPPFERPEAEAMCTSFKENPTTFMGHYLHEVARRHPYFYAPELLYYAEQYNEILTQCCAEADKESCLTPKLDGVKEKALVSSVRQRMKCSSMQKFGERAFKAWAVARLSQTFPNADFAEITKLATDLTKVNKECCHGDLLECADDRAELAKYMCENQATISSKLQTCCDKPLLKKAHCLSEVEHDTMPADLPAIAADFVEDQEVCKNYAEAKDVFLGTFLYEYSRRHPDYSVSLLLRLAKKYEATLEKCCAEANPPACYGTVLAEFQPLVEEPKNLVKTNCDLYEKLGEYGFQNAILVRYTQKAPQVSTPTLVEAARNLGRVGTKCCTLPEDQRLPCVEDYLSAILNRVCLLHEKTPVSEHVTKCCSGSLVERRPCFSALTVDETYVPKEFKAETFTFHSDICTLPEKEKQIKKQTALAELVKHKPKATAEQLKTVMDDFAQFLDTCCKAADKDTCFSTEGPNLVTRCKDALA
Sequence of rat serum albumin (P02770 25-608 limits assumed): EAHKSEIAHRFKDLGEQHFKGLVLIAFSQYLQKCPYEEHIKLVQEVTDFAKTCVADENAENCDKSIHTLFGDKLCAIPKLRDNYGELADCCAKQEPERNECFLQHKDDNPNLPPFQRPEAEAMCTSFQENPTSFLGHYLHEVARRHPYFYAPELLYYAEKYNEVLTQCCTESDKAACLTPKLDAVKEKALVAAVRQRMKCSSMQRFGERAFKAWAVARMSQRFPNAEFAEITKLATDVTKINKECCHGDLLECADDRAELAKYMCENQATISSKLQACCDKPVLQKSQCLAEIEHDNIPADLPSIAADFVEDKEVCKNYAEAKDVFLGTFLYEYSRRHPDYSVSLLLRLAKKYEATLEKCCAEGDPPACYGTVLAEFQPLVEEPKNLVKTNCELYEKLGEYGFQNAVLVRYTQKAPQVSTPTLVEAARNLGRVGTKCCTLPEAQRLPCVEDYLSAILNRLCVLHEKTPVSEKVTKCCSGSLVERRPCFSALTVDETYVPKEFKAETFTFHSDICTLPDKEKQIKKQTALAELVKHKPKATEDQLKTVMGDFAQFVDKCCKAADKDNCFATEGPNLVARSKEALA

B1: SABA5.1 (designed binder)
chain: MGVSDVPRDLEVVAATPTSLLISWEDDSYYSRYYRITYGETGGNSPVQEFTVPSDLYTATISGLKPGVDYTITVYAVTYDVTDLIMHEPISINYRTEIDKPSQHHHHHH
notes: His6-tagged Adnectin core 5; same BC, DE and FG loops as SABA4
On to B1, for which the values for the binding result in assay [1] and in assay [2] were “no binding” and “binds”, respectively.

B2: SABA1.2 (designed binder)
chain: MGVSDVPRDLEVVAATPTSLLISWHSYYEQNSYYRITYGETGGNSPVQEFTVPYSQTTATISGLKPGVDYTITVYAVYGSKYYYPISINYRTEIEDEDEDEDED
notes: also called core 1 10Fn3 comprising an (ED)5 extension
Regarding B2, the kon was determined as 8210 M⁻¹ s⁻¹ in [3]; 9440 M⁻¹ s⁻¹ in assay [6]; 7570 M⁻¹ s⁻¹ in assay [7]; 6600 M⁻¹ s⁻¹ in [9]; 33800 M⁻¹ s⁻¹ in [13]; 18900 M⁻¹ s⁻¹ in assay [14]. In addition, the figures for the kon in assay [15] and in [16] were 9260 M⁻¹ s⁻¹ and 6160 M⁻¹ s⁻¹, respectively. In addition, the “fold increase in affinity at 37 C against 25 C” value in assay [4] was about 2 fold. Moreover, in assay [5], the “ratio of affinity at 37 C against 25 C” value amounted to 0.5 fold. The Kd in assay [6] is 28.6 nM; in assay [7] it was 359 nM; in assay [8] it was 55.3 nM; in [9], 580 nM; in [13], 24.1 nM; in assay [14] it was 977 nM. Also, the Kd in assay [15] amounted to 41.9 nM; in assay [16], 479 nM. Besides, the koff in assay [6] was 0.00027 s⁻¹; in [7], 0.00272 s⁻¹; in assay [8], 0.000443 s⁻¹; in assay [9] it was 0.00378 s⁻¹; in assay [13], 0.000815 s⁻¹; in assay [14] it was 0.0185 s⁻¹. Further, the values for the koff in [15] and in [16] were 0.000388 s⁻¹ and 0.00295 s⁻¹, respectively. Further, in assay [10], the “EC50 (read off the curve)” value was about 7 nM. Also, the binding result in assay [11] and in assay [12] was “no binding (tested: 1000 nM)” each time.

B3: SABA1-FGF21v1 (designed binder)
chain: MGVSDVPRDLEVVAATPTSLLISWHSYYEQNSYYRITYGETGGNSPVQEFTVPYSQTTATISGLKPGVDYTITVYAVYGSKYYYPISINYRTEIEKPSQGSGSGSGSGSGSGSPIPDSSPLLQFGGQVRQRYLYTDDAQQTEAHLEIREDGTVGGAADQSPESLLQLKALKPGVIQILGVKTSRFLCQRPDGALYGSLHFDPEACSFRELLLEDGYNVYQSEAHGLPLHLPGNKSPHRDPAPRGPARFLPLPGLPPALPEPPGILAPQPPDVGSSDPLSMVGPSQGRSPSYAS
notes: Fusion: SABA core 1 with AdNT1 leader and AdCT7 tail, (GS)7 linker, FGF21 core with FNT3 leader and C-terminal S; also called SABA-FGF21v1 fusion; SABA1-FGF21 variant 1
Consider B3, for which, in assay [17], the “EC50 (nM), pERK assay in 3T3-L1 adipocytes” value worked out at 11 nM and the “Fold Activation, pERK assay in 3T3-L1 adipocytes” value is 1.8 fold. Further, in assay [18], the Kd was 98 nM, the koff was found to be 0.000333 s⁻¹ and the kon was 3380 M⁻¹ s⁻¹. In assay [19], this molecule showed a dissociation constant Kd of 3.8 nM and a ΔH of -15.4 kcal/mol. Further, in [20], the affinity, expressed as Kd, was 190 nM; the koff is 0.00111 s⁻¹; the kon was found to be 5960 M⁻¹ s⁻¹. In assay [21], binding was characterised by a dissociation constant (Kd) of 1200 nM, the koff came to 0.0047 s⁻¹ and the kon amounted to 3930 M⁻¹ s⁻¹. Moreover, the “EC50 (nM), pERK 1/2 assay in HEK β-Klotho expressing stable cells” value in [22] was 102 nM. The binding result in assay [23] is on record as “no binding (tested: 1000 nM)”. The “fold shift of potency (EC50) relative to His-tagged FGF21, pERK 1/2 assay” value in assay [24] was about 15 fold. In assay [25], this molecule registered a Kd of 2800 nM, a koff of 0.0123 s⁻¹ and a kon of 4440 M⁻¹ s⁻¹.
